According to patent publication US20160185837A1 (Medimmune Limited, priority 2013, published 2016):

Tests used:
Format in all cases: cell-based
[1] = biological target: T1, human GLP-1 receptor (hGLP-1r) (Homo sapiens, UniProt P43220); assay: BSA-cAMP assay, cells expressing human GLP-1 receptor; conditions: Batch 1; BSA-cAMP assay; read-out: hGLP1r cAMP activity EC50
T1 construct: expressed in transfected cells
Protocol: (§1) One basic cAMP assays was performed, differing in the medium used for the assay, the “BSA-cAMP assay”:
(§2) BSA-based assay medium: 0.1% bovine serum albumin (BSA) in
(§3) In certain aspects, the assay can also be carried out in medium supplemented with serum albumin that corresponds to the receptor being tested, e.g., human serum albumin for testing cAMP activity at hGIPr or hGLP-1r, rat serum albumin for testing cAMP activity at rGIPr or rGLP-1r, and so on. […] All sample dilutions were made in duplicate.
(§4) A frozen cryo-vial of cells expressing the receptor of interest was thawed rapidly in a water-bath, transferred to pre-warmed assay media and spun at 240×g for 5 minutes. Cells were re-suspended in assay buffer at an optimized concentration (e.g., hGLP-1r and hGIPr cells at 0.5×10^5 cells/ml).
(§5) To this, 5 μL cell suspension was added and the plates incubated at room temperature for 30 minutes.
(§6) cAMP levels were measured using a commercially available cAMP dynamic 2 HTRF kit (Cisbio, Cat #62AM4PEJ), following the two step protocol as per manufacturer's recommendations. In brief; anti-cAMP cryptate (donor fluorophore) and cAMP-d2 (acceptor fluorophore) were made up separately by diluting each 1/20 in conjugate & lysis buffer provided in the kit. 5 μL anti-cAMP cryptate was added to all wells of the assay plate, and 5 μL cAMP-d2 added to all wells except non-specific binding (NSB) wells, to which conjugate and lysis buffer was added. […] Data was transformed to % Delta F as described in manufacturer's guidelines and then transformed to percent activation of maximal native agonist response and analysed by 4-parameter logistic fit to determine EC50 values.
(§7) We used unconstrained 4 parameter logistic fit of data, curve mid-point to determine EC50. This was tested on two occasions, not two batches.

[2] = biological target: T2, human GIP receptor (hGIPr) (Homo sapiens, UniProt P48546); assay: BSA-cAMP assay, cells expressing human GIP receptor; conditions: Batch 1; BSA-cAMP assay; read-out: hGIPr cAMP activity EC50
T2 construct: expressed in transfected cells
T2 sequence (P48546 22-466): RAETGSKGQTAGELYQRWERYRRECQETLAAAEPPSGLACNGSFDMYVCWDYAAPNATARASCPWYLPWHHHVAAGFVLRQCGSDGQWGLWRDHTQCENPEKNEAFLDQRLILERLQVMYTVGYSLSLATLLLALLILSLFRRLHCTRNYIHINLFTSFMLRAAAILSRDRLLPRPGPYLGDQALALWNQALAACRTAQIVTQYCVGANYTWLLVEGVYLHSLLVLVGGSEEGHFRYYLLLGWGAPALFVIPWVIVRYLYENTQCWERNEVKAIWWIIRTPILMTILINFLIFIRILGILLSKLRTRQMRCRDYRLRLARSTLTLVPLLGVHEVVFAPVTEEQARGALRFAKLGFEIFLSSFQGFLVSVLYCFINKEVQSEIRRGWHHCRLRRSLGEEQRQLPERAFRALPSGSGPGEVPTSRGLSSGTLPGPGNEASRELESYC
Protocol: For human GIPr, two different lines were used, shown as “hGIPr” and “hGIPr (C3)” in Table 11.
as §1, §2, §3, §4, §5, §6, §7

[3] = biological target: T3, human glucagon receptor (GCGr) (Homo sapiens, UniProt P47871); assay: BSA-cAMP assay, cells expressing human glucagon receptor; conditions: Batch 1, read-out: hGCGr cAMP activity EC50
T3 construct: expressed in transfected cells; host or cells: HEK293s or CHO cells
T3 sequence (P47871 26-477): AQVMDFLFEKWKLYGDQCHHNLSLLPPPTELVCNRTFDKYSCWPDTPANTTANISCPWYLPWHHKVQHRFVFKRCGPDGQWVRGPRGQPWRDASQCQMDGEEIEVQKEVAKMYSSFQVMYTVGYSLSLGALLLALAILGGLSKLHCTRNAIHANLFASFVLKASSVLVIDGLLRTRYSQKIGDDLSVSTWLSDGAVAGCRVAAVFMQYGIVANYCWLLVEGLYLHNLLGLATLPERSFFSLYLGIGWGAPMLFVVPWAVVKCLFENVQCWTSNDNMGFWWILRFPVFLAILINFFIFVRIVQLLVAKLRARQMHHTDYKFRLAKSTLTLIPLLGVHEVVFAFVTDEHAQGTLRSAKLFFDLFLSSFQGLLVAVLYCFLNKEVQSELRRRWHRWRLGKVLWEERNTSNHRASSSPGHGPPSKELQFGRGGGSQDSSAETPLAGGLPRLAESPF
Protocol: as §1, §2, §3, §4, §5, §6, §7

[4] = biological target: T4, mouse GLP-1 receptor (mGLP-1r) (Mus musculus, UniProt O35659); assay: BSA-cAMP assay, cells expressing mouse GLP-1 receptor; conditions: Batch 1; BSA-cAMP assay; read-out: mGLP1r cAMP activity EC50
T4 construct: expressed in transfected cells; host or cells: HEK293s or CHO cells
T4 sequence (O35659 22-463): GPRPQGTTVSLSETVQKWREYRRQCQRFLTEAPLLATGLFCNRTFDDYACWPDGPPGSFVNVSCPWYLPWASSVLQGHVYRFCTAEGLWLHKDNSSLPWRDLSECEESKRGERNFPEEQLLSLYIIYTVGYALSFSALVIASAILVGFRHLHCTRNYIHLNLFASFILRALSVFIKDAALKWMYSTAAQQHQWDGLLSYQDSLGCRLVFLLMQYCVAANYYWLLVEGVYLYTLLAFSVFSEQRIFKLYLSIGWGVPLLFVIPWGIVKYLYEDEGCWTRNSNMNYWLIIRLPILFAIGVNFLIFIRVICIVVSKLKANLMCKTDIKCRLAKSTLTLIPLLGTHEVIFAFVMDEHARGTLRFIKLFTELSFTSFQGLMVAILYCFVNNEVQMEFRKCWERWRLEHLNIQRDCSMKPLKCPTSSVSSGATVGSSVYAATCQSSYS
Protocol: as §1, §2, §3, §4, §5, §6, §7
(§8) In order to be able to carry out in vivo studies in rodents, IP088 was tested for potency against the mouse receptors mGIPr and mGLP-1r as well as the rat receptors rGIPr and rGLP-1r, using cells expressing the respective receptors in the cAMP assay described above.

[5] = biological target: T5, mouse GIP receptor (mGIPr) (Mus musculus, UniProt Q0P543); assay: BSA-cAMP assay, cells expressing mouse GIP receptor; conditions: Batch 1; BSA-cAMP assay; read-out: mGIPr cAMP activity EC50
T5 construct: expressed in transfected cells; host or cells: HEK293s or CHO cells
T5 sequence (Q0P543 19-460): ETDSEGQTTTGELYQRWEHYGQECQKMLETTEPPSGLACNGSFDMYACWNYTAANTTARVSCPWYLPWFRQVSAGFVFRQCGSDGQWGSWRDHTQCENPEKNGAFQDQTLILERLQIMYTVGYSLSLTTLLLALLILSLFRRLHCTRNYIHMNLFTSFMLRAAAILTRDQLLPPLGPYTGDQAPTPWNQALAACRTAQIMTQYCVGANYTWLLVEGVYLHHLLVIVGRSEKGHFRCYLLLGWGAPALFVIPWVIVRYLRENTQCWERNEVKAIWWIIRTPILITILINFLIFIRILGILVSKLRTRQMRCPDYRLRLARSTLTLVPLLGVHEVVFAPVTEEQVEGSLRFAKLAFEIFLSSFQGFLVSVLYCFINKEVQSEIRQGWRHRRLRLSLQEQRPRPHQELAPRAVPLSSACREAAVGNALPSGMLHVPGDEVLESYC
Protocol: as §1, §2, §3, §4, §5, §6, §7, §8

[6] = biological target: T6, rat GLP-1 receptor (rGLP-1r) (Rattus norvegicus, UniProt P32301); assay: BSA-cAMP assay, cells expressing rat GLP-1 receptor; conditions: Batch 1; BSA-cAMP assay; read-out: rGLP1r cAMP activity EC50
T6 construct: expressed in transfected cells; host or cells: HEK293s or CHO cells
T6 sequence (P32301 22-463): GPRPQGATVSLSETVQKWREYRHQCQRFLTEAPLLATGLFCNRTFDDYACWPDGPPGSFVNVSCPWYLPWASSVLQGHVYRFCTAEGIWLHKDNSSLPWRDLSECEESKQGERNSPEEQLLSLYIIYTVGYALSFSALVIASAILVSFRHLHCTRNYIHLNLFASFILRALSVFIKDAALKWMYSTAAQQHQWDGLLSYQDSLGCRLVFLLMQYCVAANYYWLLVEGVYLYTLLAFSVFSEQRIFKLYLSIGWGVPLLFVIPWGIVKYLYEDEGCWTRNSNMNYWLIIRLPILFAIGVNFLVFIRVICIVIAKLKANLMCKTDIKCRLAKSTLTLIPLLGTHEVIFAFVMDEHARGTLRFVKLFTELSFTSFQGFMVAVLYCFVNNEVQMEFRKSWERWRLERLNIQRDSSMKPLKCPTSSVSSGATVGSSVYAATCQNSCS
Protocol: as §1, §2, §3, §4, §5, §6, §7, §8

rat GIP receptor (rGIPr) = biological target: T7, rat GIP receptor (rGIPr) (Rattus norvegicus, UniProt P43219); assay: BSA-cAMP assay, cells expressing rat GIP receptor; conditions: Batch 1; BSA-cAMP assay; read-out: rGIPr cAMP activity EC50
T7 construct: expressed in transfected cells; host or cells: HEK293s or CHO cells
T7 sequence (P43219 19-455): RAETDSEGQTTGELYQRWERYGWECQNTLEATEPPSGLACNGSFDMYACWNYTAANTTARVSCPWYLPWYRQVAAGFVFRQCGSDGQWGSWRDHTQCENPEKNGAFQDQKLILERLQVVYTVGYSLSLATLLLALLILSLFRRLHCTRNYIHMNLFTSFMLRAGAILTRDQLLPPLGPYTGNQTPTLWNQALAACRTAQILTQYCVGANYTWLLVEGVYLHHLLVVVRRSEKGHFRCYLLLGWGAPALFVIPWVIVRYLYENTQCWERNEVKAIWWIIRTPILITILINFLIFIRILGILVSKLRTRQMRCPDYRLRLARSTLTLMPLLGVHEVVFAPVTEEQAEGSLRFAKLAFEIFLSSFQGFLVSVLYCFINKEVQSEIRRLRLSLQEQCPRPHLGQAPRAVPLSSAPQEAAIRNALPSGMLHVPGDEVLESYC
Protocol: as §1, §2, §3, §4, §5, §6, §7, §8

T1 sequence (P43220 24-463): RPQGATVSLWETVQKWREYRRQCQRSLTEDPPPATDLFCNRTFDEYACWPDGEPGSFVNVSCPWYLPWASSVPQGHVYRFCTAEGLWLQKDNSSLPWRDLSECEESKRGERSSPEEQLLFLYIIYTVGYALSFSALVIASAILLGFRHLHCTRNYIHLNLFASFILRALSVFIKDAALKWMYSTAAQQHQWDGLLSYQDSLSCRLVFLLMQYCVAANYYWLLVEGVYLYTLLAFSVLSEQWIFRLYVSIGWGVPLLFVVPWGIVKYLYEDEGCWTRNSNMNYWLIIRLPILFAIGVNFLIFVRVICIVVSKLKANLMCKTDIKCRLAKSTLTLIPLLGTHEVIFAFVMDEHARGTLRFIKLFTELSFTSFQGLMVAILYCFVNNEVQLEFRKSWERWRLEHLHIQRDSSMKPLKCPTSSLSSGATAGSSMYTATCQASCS

Substance	EC50 [1] [nM]	EC50 [2] [nM]	EC50 [3] [nM]	EC50 [4] [nM]	EC50 [5] [nM]	EC50 [6] [nM]	EC50 (rat GIP receptor (rGIPr)) [nM]
IP314: Fc fusion, IgG1-TM(ΔK), SEQ ID NO:431; agonist peptide YSEGTFISDYSKLLAAAAVRDFVNWLLAGG (YSEGTFISDYSKLLAAAAVRDFVNWLLAGGGGGGGSGGGGSGGGGSGGGGSATHTCPPC)	> 906	0.23	740	> 906	15	450	0.88
IP318: Fc fusion, IgG1-TM(ΔK), SEQ ID NO:432; agonist peptide YSEGTFISDYSIAMDEEAVRDFVEWLKAGG (YSEGTFISDYSIAMDEEAVRDFVEWLKAGGGGGGGSGGGGSGGGGSGGGGSATHTCPPC)	≥ 4500	0.05	≥ 4500	> 4470	35	> 4470	14
IP335 (YSEGTFISDYSIAMDKIHQQDFVNWLLAQKGGGGGSGGGGSGGGGSGGGGSA)	> 5480	0.0058	280	> 2740	0.02	> 2740	0.0067
IP413: Fc fusion, IgG1-TM, SEQ ID NO:388; agonist peptide YSEGTFTSDYSKLLEEEASRLFIEWLLAGG (YSEGTFTSDYSKLLEEEASRLFIEWLLAGGGGGGSGGGGSGGGGSGGGGSATHTCPPC)	0.19		7.6	8.9	3.7	0.048	> 113

Further substances by falling EC50 [1], results first:

EC50 [1] [nM]	EC50 [2] [nM]	EC50 [3] [nM]	EC50 [4] [nM]	EC50 [5] [nM]	EC50 [6] [nM]	EC50 (rat GIP receptor (rGIPr)) [nM]	Substance
1300	0.025	≥ 1500	> 1520	0.17	700	0.09	IP308 (YSEGTFISDYSIALAAAAAKDFVNWLLAGGGGGGGSGGGGSGGGGSGGGGSATHTCPPC)
670	0.074	> 2420	1500	0.95	61	0.43	IP311 (YSEGTFISDYSIALAAAAIDDFVNWLLAGGGGGGGSGGGGSGGGGSGGGGSATHTCPPC)
